Results as given in article PMC10668032, “Altered binding affinity of SIX1-Q177R correlates with enhanced WNT5A and WNT pathway effector expression in Wilms tumor”.
Numbering of substitutions follows the chain as printed.

What was measured:
SIX1 [1] = molecular target: T1, SIX1 (human, UniProt Q15475 1-284); assay: EMSA; EMSA: Active Motif Gelshift or Thermo LightShift chemiluminescent kit binding buffer, no glycerol, no poly d(I-C), RT 25 min; protein dilutions 1-300 nM; 6% gel in 0.5x TBE; pH and salt not given; conditions: protein: recombinant; tags: N-terminal HA from pGEX-6p1-N-HA (GST removed with PreScission); label: biotin 3' end (both strands, Pierce 3' end-labeling kit); blunt
T1 sequence: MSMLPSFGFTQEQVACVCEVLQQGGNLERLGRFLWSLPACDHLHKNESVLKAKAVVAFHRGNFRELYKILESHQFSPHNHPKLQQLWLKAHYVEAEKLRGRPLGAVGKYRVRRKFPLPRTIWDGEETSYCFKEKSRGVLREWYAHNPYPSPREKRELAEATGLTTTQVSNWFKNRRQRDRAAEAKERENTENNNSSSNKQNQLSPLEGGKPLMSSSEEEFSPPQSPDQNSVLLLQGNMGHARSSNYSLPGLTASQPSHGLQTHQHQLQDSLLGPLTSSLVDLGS

SIX1 [2] = molecular target: T1, SIX1; assay: EMSA; modest increase in affinity vs N1; EMSA: Active Motif Gelshift or Thermo LightShift chemiluminescent kit binding buffer, no glycerol, no poly d(I-C), RT 25 min; protein dilutions 1-300 nM; 6% gel in 0.5x TBE; pH and salt not given; conditions: protein: recombinant; tags: N-terminal HA from pGEX-6p1-N-HA (GST removed with PreScission); label: biotin 3' end (both strands, Pierce 3' end-labeling kit); blunt

B1: WNT5A_promoter_EMSA (dsDNA)
DNA 1: CCCGCCCTAAGTGTCAAATTTCCTCCAGGGGAG
DNA 2: CTCCCCTGGAGGAAATTTGACACTTAGGGCGGG
In the case of B1, the binding signal (SIX1 [1]) is reported as ~0.1 affinity relative to SIX1-Q177R on same probe.

B2: WNT5A_promoter_EMSAmut (dsDNA)
DNA 1: B1 DNA 1 with G13A
DNA 2: B1 DNA 2 with C21T
B2: binds (SIX1 [2]).
